Measurements taken from patent publication US11001846B2, “Aptamers, nucleic acid molecules, polynucleotides, synthetic antibodies compositions for detecting PRRS viruses and treating PRRS virus infection” (AEROVIRUS TECHNOLOGIES INC., priority 2015, dated 2021).
Several values for one entry are separate records, joined by “and”; a condition that tells them apart may be missing. Equal values may be shown once.

Key:
NVSL PRRS virus = assay: MTT assay, in vitro protection of PAMs or MARC-145 cells from NVSL infection; type: cell-based, PRRSV; conditions: 500 pmole, compared to non-infected MARC-145 cells, FIG. 9b
Procedure: PAMs or MARC-145 cells were plated in 96 well plates (7×10^4/well) one day prior to the assay. Cells were washed twice with Dulbecco's phosphate buffered saline (DPBS) prior to an one (1) hour incubation with Hank's balanced salt solution (HBSS) supplemented with 25 mM HEPES and 4 mM sodium bicarbonate (pH 7.3) including 500TCID50 of LHVA-3 or 500TCID50 of NVSL in the presence or absence of the indicated aptamer concentration. Following infection, cells were incubated in growth medium at 37° C. for 72 hours. MTT assay was performed by adding 4 mg/ml MTT (3-[4,5-Dimethylthiazol-2-yl]-2,5-diphenyltetrazolium bromide dissolved in PBS to the cell cultures and incubation at 37° C. for 3 hours. Plates were then centrifuged at 800×g for 10 min. Supernatants were aspirated and the formazan dye was dissolved in 150 μl/well of isopropyl alcohol, and O.D. values were determined with an ELISA reader at 570 nm.
In Vitro Viral Protection Prior to Viral Infection PAMs or MARC-145 cells were plated on 96 well plates (7×10^4/well) 24 hours prior to the experiment. Each well was washed twice with DPBS prior to treating the cells with various amounts of A505 (12.5 to 2000 pmole) at 37° C. for the indicated time points. Cells were then washed twice with DPBS and infected with 500 TCID50 LHVA-3 (or NVSL or VR-2332 or Lelystad) for 1 hour in enriched HBSS. […]

LHVA-93-3 PRRS virus [1] = assay: In-vivo lung virus titer, LHVA-93-3, comparison with control oligonucleotide and Tilmicosin (Example 4); parameters: species or system swine; conditions: intra-nasal
Procedure: (§1) Swine were inoculated intranasally with sub-lethal infectious fluid containing 40TCID50/ml PRRS virus (LHVA-93-3) with or without 2.5 nmole A505 aptamer for different time intervals. Pig body weight was monitored for 2 weeks. Viral titer in the lungs was determined by the CPE titration method (OIE Terrestrial Manual—May 2015, Chapter 2.8.7—Porcine Reproductive and Respiratory Syndrome, section 1.1.3). Other pigs were sacrificed 6 days following viral inoculation and lungs were removed and homogenized in PBS 0.1% BSA (10% w/v). Following homogenization, samples were centrifuged to remove debris and stored at −80° C.
(§2) The cells/viruses were incubated for 2-5 days and observe daily for a CPE. At day 2, seed macrophages in new microtitre plates. Fifty (50) μl of the supernatants were transferred from the plates of the first passage to the corresponding wells of the freshly seeded plates (second passage). The wells were incubated for 2-5 days and observed daily for a CPE. The results of the CPE assays were presented as log TCID50.
Tilmicosin (Pulmotil®) was purchased from Eli Lilly (Elanco®), Canada.
(§3) Were implemented as described hereinabove. A dose of 15 ug/Kg of A505 was used.
The ability of the A505 aptamer to inhibit PRRSV infection was also compared to that of one of the currently available “anti-PRRSV” drugs, the antibiotic Tilmicosin. To this end, both A505 and Tilmicosin were administered once, together with the virus, using the intra-nasal route. As is shown in Table 2 below, a dose of 60 mg/pig of Tilmicosin (1 mg/kg body weight) reduced virus titer by 0.42 log TCID50, representing a 2.6-fold reduction in virus burden. This is in comparison to a reduction by 1.21 log TCID50 affected by A505 in this particular experiment (over 10 fold reduction in virus burden).

LHVA-93-3 PRRS virus [2] = assay: Light microscopy and immunofluorescence of infected cells; type: cell-based, PRRSV
LHVA-93-3 PRRS virus [3] = assay: In-vivo protection of swine from PRRSV infection (Example 3)
Procedure: Swine—SPF American Yorkshire swine at the age of 10-12 weeks were purchased. The selected swine were all exempt of PRRSV, SIV, and Mycoplasma Hyopneumoniae.
as §1, §2
For lung histology, pigs were sacrificed at day 7 and lungs were removed into 10% neutral buffered formalin (pH 7.0). Lungs were then sectioned and stained with haemotoxylin and eosin.
The antiviral properties of A505 were determined in vivo prior to and following viral infection. Briefly, the swine were divided into four groups designated ‘untreated’, ‘0 day’, ‘+1 day’ and ‘+2 day’. Each pig was challenged with 40 TCID50/ml of LHVA-93-3 PRRS viruses. Pigs in ‘0 day’ group were inoculated with a mixture of the virus and 2.5 μmole/ml A505, intranasally (i.n.). Pigs in ‘+1 day’ and ‘+2 day’ groups were inoculated with 2.5 μmole/ml A505, in 1 day or 2 days following virus infection, respectively. PRRS infection was monitored by three parameters, including (i) body weight loss during 14 days following virus treatment; (ii) lung virus titre; (iii) histological examination of lungs—sections were taken 7 days following virus inoculation.

various PRRSV strains = assay: In-vivo protection of swine against various PRRSV strains (Example 4); conditions: 15 ug/Kg, treatment on the day of infection; each strain 40TCID50/ml; FIG. 13a
Procedure: as §1, §2, §3

B1: A505: ssDNA aptamer binding type 2 PRRSV M-S-S-GP5 complex (nucleic acid)
DNA: GGGCGACCCTGAAGAGTTTGTAATCTGCGATTTTAAAGTTGAGTCGTCGCGAAACGGTGAAAGCCGTAGGTTGCCC
modifications: DNA, backbone and methylation of C not given here
- protection against infection of the cells (NVSL PRRS virus): ~70%
- Reduction Factor (LHVA-93-3 PRRS virus [1]; Table 2, administered once with the virus): 17.1
- Δ (log TCID50), reduction of virus titer (LHVA-93-3 PRRS virus [1]; administered once together with the virus, Tilmicosin 60 mg/pig (1 mg/kg), A505 15 ug/Kg): 1.21 log TCID50 and 1.23 log TCID50
- reduction in virus burden (LHVA-93-3 PRRS virus [1]; administered once with the virus): over 10 fold
- cell morphology of infected cells, light microscopy (LHVA-93-3 PRRS virus [2]; MARC-145 cells, virus in the presence of aptamer, FIG. 10b): destruction was inhibited and the cell morphology was largely conserved
- viral presence by immunofluorescence (LHVA-93-3 PRRS virus [2]; two days incubation with virus and aptamer, FIG. 10e): almost entirely prevented
- body weight loss (LHVA-93-3 PRRS virus [3]; 14 days, treatment groups +2 day, 0 day, +1 day vs control group, FIG. 12a): significantly lower weight loss and enhanced recovery
- protection equivalent to lung virus titer difference (LHVA-93-3 PRRS virus [3]; '0 day' group): over 99%
- difference in lung virus titer compared to the non-treated group (LHVA-93-3 PRRS virus [3]; '0 day' group, 2.5 μmole/ml A505 i.n. mixed with virus, 40 TCID50/ml, FIG. 12b): more than 2 log
- protection in lung virus titer, treatment after infection (LHVA-93-3 PRRS virus [3]; '+1 day' and '+2 day' groups): Further protection
- reduction of viral load in the lungs vs infected group (LHVA-93-3 PRRS virus [3]; all three A505-treated groups, six days after infection, p<0.05, FIG. 12b): statistically significant
- lung histology, inflamed areas (LHVA-93-3 PRRS virus [3]; sections 7 days after virus inoculation, intranasal A505): reduces the inflamed areas in lungs
- prevention of infection (lung virus titer) by various strains (various PRRSV strains): efficient in preventing the infection by all tested strains of PRRSV
